Laboratory results: IntAct's records for PubMed 19375531

B1: AH receptor-interacting protein (Homo sapiens), O00170 (parent)
chain: MADIIARLREDGIQKRVIQEGRGELPDFQDGTKATFHYRTLHSDDEGTVLDDSRARGKPMELIIGKKFKLPVWETIVCTMREGEIAQFLCDIKHVVLYPLVAKSLRNIAVGKDPLEGQRHCCGVAQMREHSSLGHADLDALQQNPQPLIFHMEMLKVESPGTYQQDPWAMTDEEKAKAVPLIHQEGNRLYREGHVKEAAAKYYDAIACLKNLQMKEQPGSPEWIQLDQQITPLLLNYCQCKLVVEEYYEVLDHCSSILNKYDDNVKAYFKRGKAHAAVWNAQEAQADFAKVLELDPALAPVVSRELRALEARIRQKDEEDKARFRGIFSH

Variants of: B1
Details: with hs90b_human HSP90AB1, P08238
Chain of hs90b_human HSP90AB1, P08238 (P08238 whole entry): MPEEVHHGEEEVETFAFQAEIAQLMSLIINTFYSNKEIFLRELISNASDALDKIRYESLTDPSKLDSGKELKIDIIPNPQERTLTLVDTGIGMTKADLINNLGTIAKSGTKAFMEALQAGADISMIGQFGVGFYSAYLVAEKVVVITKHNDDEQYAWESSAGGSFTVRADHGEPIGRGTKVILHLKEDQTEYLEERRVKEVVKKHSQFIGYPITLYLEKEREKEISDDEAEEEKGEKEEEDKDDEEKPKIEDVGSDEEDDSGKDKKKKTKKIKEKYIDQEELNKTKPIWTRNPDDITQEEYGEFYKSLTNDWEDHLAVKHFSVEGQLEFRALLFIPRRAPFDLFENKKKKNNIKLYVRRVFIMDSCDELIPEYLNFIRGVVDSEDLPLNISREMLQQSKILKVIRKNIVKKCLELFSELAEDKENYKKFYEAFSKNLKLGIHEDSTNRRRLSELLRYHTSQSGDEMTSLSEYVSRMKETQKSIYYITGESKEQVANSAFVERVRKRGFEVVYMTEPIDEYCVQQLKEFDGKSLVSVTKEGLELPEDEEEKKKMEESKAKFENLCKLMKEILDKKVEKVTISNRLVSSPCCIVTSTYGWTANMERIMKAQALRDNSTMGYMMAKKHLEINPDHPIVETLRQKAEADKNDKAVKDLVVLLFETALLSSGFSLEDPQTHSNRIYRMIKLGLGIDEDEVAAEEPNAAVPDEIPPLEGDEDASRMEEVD

Row | Variant | effect of a mutation on the interaction
1 | MADIIARLREDGIQKRVIQEGRGELPDFQDGTKATFHYRTLHSDDEGTVLDDSRARGKPMELIIGKKFKLPVWETIVCTMREGEIAQFLCDIKHVVLYPLVAKSLRNIAVGKDPLEGQRHCCGVAQMREHSSLGHADLDALQQNPQPLIFHMEMLKVESPGTYQQDPWAMTDEEKAKAVPLIHQEGNRLYREGHVKEAAAKYYDAIACLKNLQMKEQPGSPEWIQLDQQITPLLLNYCQCKLVVEEYYEVLDHCSSILNKYDDNVAAYFKRGKAHAAVWNAQEAQADFAKVLELDPALAPVVSRELRALEARIRQKDEEDKARFRGIFSH [K266A] | disrupting interaction
2 | MADIIARLREDGIQKRVIQEGRGELPDFQDGTKATFHYRTLHSDDEGTVLDDSRARGKPMELIIGKKFKLPVWETIVCTMREGEIAQFLCDIKHVVLYPLVAKSLRNIAVGKDPLEGQRHCCGVAQMREHSSLGHADLDALQQNPQPLIFHMEMLKVESPGTYQQDPWAMTDEEKAKAVPLIHQEGNRLYREGHVKEAAAKYYDAIACLKNLQMKEQPGSPEWIQLDQQITPLLLNYCQCKLVVEEYYEVLDHCSSILNKYDDNVKAYFKAGKAHAAVWNAQEAQADFAKVLELDPALAPVVSRELRALEARIRQKDEEDKARFRGIFSH [R271A] | disrupting interaction
